Experimental data taken from the supplement of paper PMC9170038.

tested on: MS2 coat protein; experiment: apparent KD of MS2 coat protein; higher = weaker reporter binding; conditions: Eterna round: R107; input ligand: theophylline 2 mM
Procedure, shortened: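 Binding of SNAP-549-labelled MS2 coat protein was measured on designed RNA switches transcribed on-chip from Illumina sequencing clusters. The protein rose in twofold steps from 0.7 or 1.5 nM to 3 µM, with 0.8–1.5 h per step early on and 10–20 min per step later, in 100 mM Tris-HCl pH 7.5, 80 mM KCl, 4 mM MgCl2, without or with constant ligand. Each design's apparent KD is the median of fits to its normalised cluster binding curves.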

**Q.** “UAUAGUACCAGACAUGAGGAUCACCCAUGUCGAGGACCGGUACGGCCGCCACUCGGCAGUUUGCGUCCUCAGGUACUCCGGGUCA [Larisotexe]” was tested. Which “apparent KD of MS2 coat protein” value did it give?
**A.** Its value is 0.0261 µM.

**Q.** Which “apparent KD of MS2 coat protein” value does the source give for “AUUUGGCGUAGUGUUGCUCGUGGGAUAAAACGAGGACCGGUACGGCCGCCACUCGAUGAUUAACAUGAGGAUCACCCAUGUAAAU [theeternabot_exclusion_MS2_Trp_A_22]” here?
**A.** The value was 0.0322 µM.

**Q.** Which “apparent KD of MS2 coat protein” value does the source give for “AUAACAUGAGGAUCACCCAUGUAAGCUGAAGGAGCGCUGGAAACAGCAGGUAGGUCGCAGCGGCGACCUUCCUCAUGAAGGUCGC [(M1)-(M2)-(Arg1)-(Arg2)-(A)'-(M)'-(A)''_Design5]” here?
**A.** The value was 0.017 µM.

**Q.** How did the “apparent KD of MS2 coat protein” value turn out when “UUGGGUUUGCGAAGGAGCGGGAAAUAUAUAUAUAUAAUCCUAACAUGAGGAUCACCCAUGUCCCAGGUAGGUCGCGCAGGUUUGG [12.L]” was run?
**A.** Its value is 0.0732 µM.

**Q.** Which “apparent KD of MS2 coat protein” value does the source give for “CCCAGUCAUAACAAAGCAAAUAUACUCGAAGGAGCGUCAUAGUAGGCAGGUAGGUCGCGAGACAUGAGGAUCACCCAUGUAGAGA [zrzmullin]” here?
**A.** The value was 0.0392 µM.

**Q.** For “ACAUGAGGAUCACCCAUGUAUGACUAUCCUCGAGGACCGGUACGGCCGCCACUCGAACGAGUGGCUCGCGAGUGCGCACUCGCGA [5' end]”, which “apparent KD of MS2 coat protein” value is on record?
**A.** The value was 0.0113 µM.

**Q.** With “GGGCCCGGGCCGGAAACGGCCCGGGCCCUGCGAGGACCGGUACGGCCGCCACUCGCUCGAGUGGGUACAUGAGGAUCACCCAUGU [#17 Exclusion Tryptophan A]” as the sequence, how does the “apparent KD of MS2 coat protein” value read?
**A.** Its value is 0.0333 µM.

**Q.** With “GGACCAGGGAGCGAUACCAGCUUGAGUGUGCUGGCCAGGCACAUGAGGAUCACCCAUGUAGGCCCUUGGCAGCGCUCCCUGGUCC [#1 Exclusion - Theophylline B Attempt #28 (HarryS)]” as the sequence, how does the “apparent KD of MS2 coat protein” value read?
**A.** Its value is 0.0123 µM.

**Q.** With “AAUACCGGUCCUCGAGGGUGAUCCUCAUGACGAGGACCGGUACGGCCGCCACUCGAUAACAUGAGGAUCACCCAUGUAAUCGAGU [|T'-M'-Trp-Ms2|_Design7b]” as the sequence, how does the “apparent KD of MS2 coat protein” value read?
**A.** Its value is 0.0724 µM.

same assay, conditions: Eterna round: R107; input ligand: tryptophan 2.4 mM

**Q.** With “GCUGUACCAUGAAGGAGCGUCACGGAGUGCGAAUACACAUGAGGAUCACCCAUGUUUUUAUGGCAGGUAGGUCGCAUGGUACAGC [#02 Same State - Arginine B]” as the sequence, how does the “apparent KD of MS2 coat protein” value read?
**A.** The value was 0.0229 µM.

**Q.** How did the “apparent KD of MS2 coat protein” value turn out when “ACAUGAGGAUCACCCAUGUAAUAAUCAGAAGGAGCGUGGAAUAACACAGGUAGGUCGCUGAUGUUUGGUUAAAUGUAAUCGUGUA [JR_SSArginiA_Sub001]” was run?
**A.** Its value is 0.0171 µM.

**Q.** With “GGUCUCGAGAGCGAUACCAGCUUGAUCGUACUGGCCUGGUACAUGAGGAUCACCCAUGUAAGCCCUUGGCAGCGCUCUCGAGACC [#1 Exclusion - Theophylline B Attempt #7 (HarryS)]” as the sequence, how does the “apparent KD of MS2 coat protein” value read?
**A.** Its value is 0.014 µM.

**Q.** For “AAUAAGUAUCUGCUAGGUGAUCCAGCAGAUACCAGCUAGGAAACUAGCCCUUGGCAGCUGCAACAUGAGGAUCACCCAUGUAAUA [(T)'-(M)'-(T1)-(T2)-(M1)-(M2)_Design3]”, which “apparent KD of MS2 coat protein” value is on record?
**A.** The value was 0.407 µM.

**Q.** Which “apparent KD of MS2 coat protein” value does the source give for “UUAAUCAGGUUAGAAAACUAAUUUGCAGAAGGAGCGUGAUAAAACACAGGUAGGUCGCUGAAGGGAACAUGAGGAUCACCCAUGU [AstrosSSArgA#10]” here?
**A.** Its value is 0.026 µM.

**Q.** With “GGAUAGGACACGGCCGCCACUAGCUAGGAUACUAGCAACAUUUCCUCACUUGAGGAUCACCCAGGUAGGACCGGGUGUCCUAUCG” as the sequence, how does the “apparent KD of MS2 coat protein” value read?
**A.** Its value is 0.62 µM.

**Q.** With “UGGUUUCGGUCAAUCACCGGUCCCUGGGAAGGAGCGGACUCAUGUCCAGGUAGGUCGCCCAGACAUGAGGAUCACCCAUGUGACA [Tiusdiin]” as the sequence, how does the “apparent KD of MS2 coat protein” value read?
**A.** The value was 0.0241 µM.

**Q.** How did the “apparent KD of MS2 coat protein” value turn out when “UGUAUGUGAUUUGAUACCAGACCAGCUGGUGGUACUUGAGGAACACCCAAGUAGGUUUGGGUCCCUUGGCAGCAAAUCGCAUACU [SS Theo B #24 Ms11]” was run?
**A.** The value was 0.138 µM.

**Q.** With “AAAAUCCUACUUGAGGAUCACCCAGGUGAAGGAGCGCCCGAAAGGGCAGGUAGGUCGCACCUGAGGAUCACCCUGGUAACCUAAA [ArgEX 9 #DoubleMS2 #OpenEnded]” as the sequence, how does the “apparent KD of MS2 coat protein” value read?
**A.** Its value is 0.178 µM.

**Q.** How did the “apparent KD of MS2 coat protein” value turn out when “CCCAGUCAUAGCAGGGCAAAUAUACUCGAAGGAGCGUCAUAGUAGGCAGGUAGGUCGCGAGACAUGAGGAUCACCCAUGUAGAGA [cccmullin]” was run?
**A.** Its value is 0.0448 µM.

**Q.** With “AGCCCUGUACUAGAUACCAGCUACAUGAGGAUCACCCAUGUGCGUCAAGACUGACUGUGUGGCCCUUGGCAGCUGCUCGCAUGUA [Exclusion - Theophylline B (Freestyle 1)]” as the sequence, how does the “apparent KD of MS2 coat protein” value read?
**A.** The value was 0.168 µM.

**Q.** For “CGUACAUGAGGAUCACCCAUGUAGAGUGAUACCAGUCUACCUAGUGACCCUUGGCAGCACAUCGAUGGCAUCGGUGAUGCCGUUU [Atveti]”, which “apparent KD of MS2 coat protein” value is on record?
**A.** Its value is 0.117 µM.

**Q.** “ACAUGAAGAACAGCGGUGGGCGCGCUCGAUACCAGUAUUUUAAAUUACCCUUGGCAGCGACAUGAGGAUCACCCAUGUGAGAUGA [XTheo A #5]” was tested. Which “apparent KD of MS2 coat protein” value did it give?
**A.** The value was 0.018 µM.

**Q.** For “GGAUAGGACACGGCCGCCACUAGCUAGGAUACUAGCAACAUUUCCUCAGAUGAGGAUCACCCAUCUAGGACCGGGUGUCCUAUCG”, which “apparent KD of MS2 coat protein” value is on record?
**A.** Its value is 0.0844 µM.

**Q.** How did the “apparent KD of MS2 coat protein” value turn out when “UGUAUGUGAUCUGAUACCAGUCCAACUGGUAAAAGAUGAGGAUCACCCAUCUAAAAUUGGGACCCUUGGCAGCAGAUCGCAUACU” was run?
**A.** The value was 0.264 µM.

**Q.** “UUAUUUAUAUUAGAUACCAGUUUAAUGGCCGCAAAUCCUGACAUGAGGAUCACCCAUGUAAGCCCUUGGCAGCUGGUAUGGGUUU [XTheo B #26]” was tested. Which “apparent KD of MS2 coat protein” value did it give?
**A.** Its value is 0.0205 µM.

**Q.** For “GGGUGCGGCACGGCCGCCACUGCGGUGGUGUGACAUGAGGAUCACCCAUGUUGUCAUGCGGCCCUUAGGACCGGGUGCCGUGCCC [#1 Exclusion - Tryptophan B Attempt #13 (HarryS)]”, which “apparent KD of MS2 coat protein” value is on record?
**A.** The value was 0.0438 µM.

**Q.** How did the “apparent KD of MS2 coat protein” value turn out when “AUAACAUGAGGAUCACCCAUGUAAGCUGAAGGAGCGCUGGAAACAGCAGGUAGGUCGCAGCGGCGACCUUCCUCAUGAAGGUCGC [(M1)-(M2)-(Arg1)-(Arg2)-(A)'-(M)'-(A)''_Design5]” was run?
**A.** The value was 0.0185 µM.

**Q.** “UUGGGUUUGCGAAGGAGCGGGAAAUAUAUAUAUAUAAUCCUAACAUGAGGAUCACCCAUGUCCCAGGUAGGUCGCGCAGGUUUGG [12.L]” was tested. Which “apparent KD of MS2 coat protein” value did it give?
**A.** Its value is 0.0587 µM.

**Q.** With “CCCAGUCAUAACAAAGCAAAUAUACUCGAAGGAGCGUCAUAGUAGGCAGGUAGGUCGCGAGACAUGAGGAUCACCCAUGUAGAGA [zrzmullin]” as the sequence, how does the “apparent KD of MS2 coat protein” value read?
**A.** Its value is 0.0351 µM.

**Q.** How did the “apparent KD of MS2 coat protein” value turn out when “ACAUGAGGAUCACCCAUGUAUGACUAUCCUCGAGGACCGGUACGGCCGCCACUCGAACGAGUGGCUCGCGAGUGCGCACUCGCGA [5' end]” was run?
**A.** The value was 0.0103 µM.

**Q.** For “GGGCCCGGGCCGGAAACGGCCCGGGCCCUGCGAGGACCGGUACGGCCGCCACUCGCUCGAGUGGGUACAUGAGGAUCACCCAUGU [#17 Exclusion Tryptophan A]”, which “apparent KD of MS2 coat protein” value is on record?
**A.** Its value is 0.0319 µM.

**Q.** Which “apparent KD of MS2 coat protein” value does the source give for “GGACCAGGGAGCGAUACCAGCUUGAGUGUGCUGGCCAGGCACAUGAGGAUCACCCAUGUAGGCCCUUGGCAGCGCUCCCUGGUCC [#1 Exclusion - Theophylline B Attempt #28 (HarryS)]” here?
**A.** The value was 0.0141 µM.
